Results reported in patent publication US20250237662A1.
Residue numbers refer to the chain shown, from its start. One block for each binder: values may come before it.

Assays:
[1] = molecular target: humanized therapeutic monoclonal antibody IgG1 (hIgG1); test: direct ELISA, hIgG1 coated, B-cell culture medium
[2] = molecular target: humanized development candidate monoclonal antibody IgG4 (hIgG4); test: Gyrolab, mAb as capture, hIgG4 8 ng/ml
[3] = molecular target: cynomolgus monkey IgG (cynoIgG); test: direct ELISA, cynoIgG coated (hIgG1/CynoIgG screen), B-cell culture medium
[4] = molecular target: internal research reagent human Fab (hFab); test: SPR (Biacore T200), mAb captured by anti-rabbit mAb on CM5, antigen 80-0 nM, 1:1 fit
[5] = molecular target: humanized therapeutic monoclonal antibody IgG1 (hIgG1); test: as above
[6] = molecular target: humanized development candidate monoclonal antibody IgG4 (hIgG4); test: as above
[7] = molecular target: humanized development candidate monoclonal antibody IgG4 (hIgG4); test: Gyrolab, mAb as capture, hIgG4 0.32 ng/ml
[8] = molecular target: humanized development candidate monoclonal antibody IgG4 (hIgG4); test: Gyrolab, mAb as capture, hIgG4 40 ng/ml
[9] = molecular target: humanized development candidate monoclonal antibody IgG4 (hIgG4); test: direct ELISA, hIgG4 coated, B-cell culture medium
[10] = molecular target: humanized development candidate monoclonal antibody IgG4 (hIgG4); test: Gyrolab, mAb as capture, hIgG4 1.6 ng/ml
[11] = molecular target: humanized development candidate monoclonal antibody IgG4 (hIgG4); test: Gyrolab, mAb as capture, hIgG4 200 ng/ml
[12] = molecular target: humanized development candidate monoclonal antibody IgG4 (hIgG4); test: Gyrolab, mAb as capture, hIgG4 1000 ng/ml
[13] = molecular target: cynomolgus monkey IgG (cynoIgG); test: direct ELISA, cynoIgG coated (hIgG4/CynoIgG screen), B-cell culture medium
[14] = molecular target: humanized development candidate monoclonal antibody IgG4 (hIgG4); test: Gyrolab, mAb as capture, hIgG4 5000 ng/ml
[15] = molecular target: humanized development candidate monoclonal antibody IgG4 (hIgG4); test: ELISA, medium of transfected HEK293F; signal on hIgG4 over signal on cynoIgG
[16] = molecular target: drug: a monoclonal antibody of human IgG4 isotype (PandA assay); test: PandA assay, mAb 0.5 ug/ml in monkey plasma
[17] = molecular target: humanized development candidate monoclonal antibody IgG4 (hIgG4); test: Gyrolab, mAb as capture, hIgG4 1000 ng/ml, against the blank
[18] = molecular target: drug: a monoclonal antibody of human IgG4 isotype (PandA assay); test: PandA assay, monkey matrix, mAb 0.75 ug/ml
[19] = molecular target: drug: a monoclonal antibody of human IgG4 isotype (PandA assay); test: PandA assay, monkey matrix, mAb 1 ug/ml
[20] = molecular target: drug: a monoclonal antibody of human IgG4 isotype (PandA assay); test: PandA assay, mAb 0.75 ug/ml in monkey plasma
[21] = molecular target: humanized development candidate monoclonal antibody IgG4 (hIgG4); test: Gyrolab, mAb as capture, hIgG4 5000 ng/ml, against the blank
[22] = molecular target: humanized development candidate monoclonal antibody IgG4 (hIgG4); test: Gyrolab, mAb as capture, hIgG4 40 ng/ml, against the blank
[23] = molecular target: humanized development candidate monoclonal antibody IgG4 (hIgG4); test: Gyrolab, mAb as capture, hIgG4 0.32 ng/ml, against the blank
[24] = molecular target: humanized development candidate monoclonal antibody IgG4 (hIgG4); test: Gyrolab, mAb as capture, hIgG4 1.6 ng/ml, against the blank
[25] = molecular target: drug: a monoclonal antibody of human IgG4 isotype (PandA assay); test: PandA assay, mAb 1 ug/ml in monkey plasma
[26] = molecular target: humanized development candidate monoclonal antibody IgG4 (hIgG4); test: Gyrolab, mAb as capture, hIgG4 200 ng/ml, against the blank
[27] = molecular target: drug: a monoclonal antibody of human IgG4 isotype (PandA assay); test: PandA assay, monkey matrix, mAb 5 ug/ml
[28] = molecular target: drug: a monoclonal antibody of human IgG4 isotype (PandA assay); test: PandA assay, signal to noise against the negative control
[29] = molecular target: drug: a monoclonal antibody of human IgG4 isotype (PandA assay); test: PandA assay (PEG precipitation, acid dissociation, MSD plate, sulfo-TAG-drug), mAb 5 ug/ml in monkey plasma
[30] = molecular target: drug: a monoclonal antibody of human IgG4 isotype (PandA assay); test: PandA assay, monkey matrix, mAb 0.5 ug/ml
[31] = molecular target: humanized therapeutic monoclonal antibody IgG1 (hIgG1); test: ELISA, medium of transfected HEK293F; signal on hIgG1 over signal on cynoIgG
[32] = molecular target: humanized development candidate monoclonal antibody IgG4 (hIgG4); test: Gyrolab, mAb as capture, hIgG4 8 ng/ml, against the blank
[33] = molecular target: humanized development candidate monoclonal antibody IgG4 (hIgG4); test: Gyrolab immunoassay quality control, biotinylated 16F5 as capture, hIgG4 in matrix with 4% cynomolgus monkey serum, Alexa Fluor 647 goat anti-human IgG detection

OD450 [1]: 1.11 OD450
Av. Resp. [2]: 12.8
OD450 [3]: 0.089 OD450
Kd [4]: 1.12 nM
Kd [5]: 0.619 nM
Kd [6]: 0.279 nM
Av. Resp. [7]: 3.1
Av. Resp. [8]: 45.1
OD450 [9]: 0.91 OD450
Av. Resp. [10]: 5
Av. Resp. [11]: 148
Av. Resp. [12]: 289
OD450 [13]: 0.092 OD450
Av. Resp. [14]: 330
B1: rabbit anti-human IgG monoclonal antibody clone 11F9 (antibody, V domains shown)
VH: QQQLEESGGGLVQPEGSLTLTCIASGFSFSSSHWICWVRQAPGKGLEWIACMSTSSGSTYDANWAKGRFTISKTSSTTVTLQMTSLTAADTATYFCARDVGGSTTYFDLWGPGTLVTVSS
VL: AYDMTQTPASVSEPVGGTVTIKCQASQSISNELSWYQQKPGQPPKLLIYRASTLASGVPSRFKGSGSGTQFTLTINGVECADAATYYCQQGYSISNVDNTFGGGTEVVVKG

OD450 [1]: 1.25 OD450
Av. Resp. [2]: 20.3
ELISA signal ratio hIgG4/CynoIgG [15]: 5.19
OD450 [3]: 0.161 OD450
ECL Signal [16]: 171
Kd [4]: 0.591 nM
koff [4]: 0.000531 s⁻¹
kon [4]: 899000 M⁻¹ s⁻¹
Kd [5]: 0.187 nM
koff [5]: 2.52e-05 s⁻¹
kon [5]: 135000 M⁻¹ s⁻¹
Kd [6]: 0.0429 nM
koff [6]: 5.8e-06 s⁻¹
kon [6]: 135000 M⁻¹ s⁻¹
S/B [17]: 53.1
S/N (monkey) [18]: 1.92
S/N (monkey) [19]: 2.4
ECL Signal [20]: 257
Av. Resp. [7]: 7.5
Av. Resp. [8]: 60.9
S/B [21]: 63.3
OD450 [9]: 1.32 OD450
S/B [22]: 8.2
S/B [23]: 1
S/B [24]: 1.3
Av. Resp. [10]: 9.8
ECL Signal [25]: 320
S/B [26]: 24.8
Av. Resp. [11]: 184
S/N (monkey) [27]: 9.76
Av. Resp. [12]: 394
S/N [28]: 1.8
ECL Signal [29]: 1550
S/N (monkey) [30]: 1.58
OD450 [13]: 0.159 OD450
ELISA signal ratio hIgG1/CynoIgG [31]: 4.94
S/B [32]: 2.7
Av. Resp. [14]: 468
B2: rabbit anti-human IgG monoclonal antibody clone 11G5 (antibody, V domains shown)
VH: QSLEESGGDLVKPGASLTLTCTASGFSFSSSYYMCWVRQAPGKRLEWIACIYGGGLSNTYYAGWAKGRFTISKTSSTTVTLQMTSLTAADTATYFCARDATSGDYLNLWGPGTLVTVSS
VL: AVVMTQTASPVSGAVGGTVTINCQASQSISASALSWYQQKPGQPPKLLIYAASTLESGVPSRFKGSGSGTQFTLTISGVQCDDAATYYCAYDGYRLSSADNIFGGGTEVVVKG

OD450 [1]: 1.28 OD450
Av. Resp. [2]: 8.6
ELISA signal ratio hIgG4/CynoIgG [15]: 9.53
OD450 [3]: 0.14 OD450
Kd [4]: 0.518 nM
koff [4]: 0.00603 s⁻¹
kon [4]: 1.16e+07 M⁻¹ s⁻¹
Kd [5]: 0.426 nM
koff [5]: 6.1e-05 s⁻¹
kon [5]: 143000 M⁻¹ s⁻¹
Kd [6]: 0.196 nM
koff [6]: 2.68e-05 s⁻¹
kon [6]: 137000 M⁻¹ s⁻¹
S/B [17]: 88.2
Av. Resp. [7]: 3
Av. Resp. [8]: 28.4
S/B [21]: 113
OD450 [9]: 1.28 OD450
S/B [22]: 9.8
S/B [23]: 1.1
S/B [24]: 1.4
Av. Resp. [10]: 4.1
S/B [26]: 35.5
Av. Resp. [11]: 103
Av. Resp. [12]: 256
OD450 [13]: 0.146 OD450
ELISA signal ratio hIgG1/CynoIgG [31]: 10.2
S/B [32]: 3
Av. Resp. [14]: 327
B3: rabbit anti-human IgG monoclonal antibody clone 9E6 (antibody, V domains shown)
VH: QSLEESGGDLVKPGASLTLTCKASGFDFSSSYYMCWVRQAPGRLEWIACIYGGGLSNTYYAGWAKGRFTISKTSSTTVTLQMTSLTVADTATYFCARDAGTSGDYLNLWGPGTLVTVSS
VL: B2 VL with A31S, A33Y, A51G, E56A, G93A, A99P

OD450 [1]: 1.15 OD450
Av. Resp. [2]: 6.2
OD450 [3]: 0.055 OD450
Kd [4]: 0.54 nM
Kd [5]: 0.239 nM
Kd [6]: 0.067 nM
Av. Resp. [7]: 1.8
Av. Resp. [8]: 22.8
OD450 [9]: 0.954 OD450
Av. Resp. [10]: 2.7
Av. Resp. [11]: 82.9
Av. Resp. [12]: 203
OD450 [13]: 0.102 OD450
Av. Resp. [14]: 246
B4: rabbit anti-human IgG monoclonal antibody clone 19B1 (antibody, V domains shown)
VH: QEQLVESGGGLVQPEGSLTLTCTASGFSFSDSYYMCWVRQAPGKGLEWIACIYGGTITNTYYASWAKGRFTISKTSSTTVTLQMTSLTAADTATYFCARDLGAAGDAYNLWGPGTLVTVSS
VL: ASDMTQTPASVSEPVGGTVTIKCQASENIYSSLAWYQQKPGQPPKLLIYDASNLASGVPSRFSGSGSGTEFTLTISDLECADAATYYCQCTYRSSSSSYAFGGGTEVVVKG

OD450 [1]: 1.39 OD450
Av. Resp. [2]: 18.5
ELISA signal ratio hIgG4/CynoIgG [15]: 6.33
OD450 [3]: 0.184 OD450
Kd [4]: 1.93 nM
koff [4]: 0.00584 s⁻¹
kon [4]: 3.02e+06 M⁻¹ s⁻¹
Kd [5]: 0.127 nM
koff [5]: 2.21e-05 s⁻¹
kon [5]: 173000 M⁻¹ s⁻¹
Kd [6]: 0.514 nM
koff [6]: 8.09e-05 s⁻¹
kon [6]: 157000 M⁻¹ s⁻¹
S/B [17]: 94.4
Av. Resp. [7]: 4.4
Av. Resp. [8]: 64.2
S/B [21]: 98.6
OD450 [9]: 1.37 OD450
S/B [22]: 16.4
S/B [23]: 1.1
S/B [24]: 1.8
Av. Resp. [10]: 7
S/B [26]: 50.5
Av. Resp. [11]: 197
Av. Resp. [12]: 369
OD450 [13]: 0.154 OD450
ELISA signal ratio hIgG1/CynoIgG [31]: 5.9
Average Response (HQC, expected conc 750 ng/mL) [33]: 414
Average Response (LQC, expected conc 40.0 ng/mL) [33]: 70.3
Average Response (MQC, expected conc 0.600 ng/mL) [33]: 5.85
Response (HQC, expected conc 750 ng/mL, CD struct C1) [33]: 400
Response (HQC, expected conc 750 ng/mL, CD struct C2) [33]: 427
Response (LQC, expected conc 40.0 ng/mL, CD struct C3) [33]: 68.6
Response (LQC, expected conc 40.0 ng/mL, CD struct C4) [33]: 72
Response (MQC, expected conc 0.600 ng/mL, CD struct C5) [33]: 5.88
Response (MQC, expected conc 0.600 ng/mL, CD struct C6) [33]: 5.83
S/B (HQC, expected conc 750 ng/mL, CD struct C1) [33]: 87.7
S/B (HQC, expected conc 750 ng/mL, CD struct C2) [33]: 93.6
S/B (LQC, expected conc 40.0 ng/mL, CD struct C3) [33]: 15
S/B (LQC, expected conc 40.0 ng/mL, CD struct C4) [33]: 15.8
S/B (MQC, expected conc 0.600 ng/mL, CD struct C5) [33]: 1.29
S/B (MQC, expected conc 0.600 ng/mL, CD struct C6) [33]: 1.28
S/B [32]: 4.7
Av. Resp. [14]: 385
B5: rabbit anti-human IgG monoclonal antibody clone 16F5 (antibody, V domains shown)
VH: QQQLEESGGGLVKPGGTLTLTCKASGIDFSNYYYMCWVRQAPGKGLELIACIYTGSSGSTWYATWAKGRFTISKTSSTTVTLQMTSLTAADTATYFCARDRDVGSLYDSLDLWGQGTLVTVSP
VL: AYDMTQTPASVEAAVGGTVTINCQASQSINNWLSWYQQKPGQRPKLLIYQASTLASGVSSRFKGSGSGTHFTLTISDLECADAATYYCQQGWSIDDIDNAFGGGTEVVVKG
